Measured values taken from patent US11207340B2, “Tumor suppressor TET1 and uses thereof” (The Chinese University of Hong Kong, priority 2017, dated 2021).
Entries after “also recorded” stand apart in the source; their conditions may differ.

B1: TET1-CD: Human TET1 catalytic domain (Cys-rich and DSBH regions), N-terminal Flag tag, expressed from pcDNA3.1 plasmid; SEQ ID NO:6 (protein, listed as Homo sapiens)
chain: ELPTCSCLDRVIQKDKGPYYTHLGAGPSVAAVREIMENRYGQKGNAIRIEIVVYTGKEGKSSHGCPIAKWVLRRSSDEEKVLCLVRQRTGHHCPTAVMVVLIMVWDGIPLPMADRLYTELTENLKSYNGHPTDRRCTLNENRTCTCQGIDPETCGASFSFGCSWSMYFNGCKFGRSPSPRRFRIDPSSPLHEKNLEDNLQSLATRLAPIYKQYAPVAYQNQVEYENVARECRLGSKEGRPFSGVTACLDFCAHPHRDIHNMNNGSTVVCTLTREDNRSLGVIPQDEQLHVLPLYKLSDTDEFGSKEGMEAKIKSGAIEVLAPRRKKRTCFTQPVPRSGKKRAAMMTEVLAHKIRAVEKKPIPRIKRKNNSTTTNNSKPSSLPTLGSNTETVQPEVKSETEPHFILKSSDNTKTYSLMPSAPHPVKEASPGFSWSPKTASATPAPLKNDATASCGFSERSSTPHCTMPSGRLSGANAAAADGPGISQLGEVAPLPTLSAPVMEPLINSEPSTGVTEPLTPHQPNHQPSFLTSPQDLASSPMEEDEQHSEADEPPSDEPLSDDPLSPAEEKLPHIDEYWSDSEHIFLDANIGGVAIAPAHGSVLIECARRELHATTPVEHPNRNHPTRLSLVFYQHKNLNKPQHGFELNKIKFEAKEAKNKKMKASEQKDQAANEGPEQSSEVNELNQIPSHKALTLTHDNVVTVSPYALTHVAGPYNHWV
modifications: N-terminal Flag tag

Key:
Format in all cases: cell-based, human
TET1 = assay: Demethylation treatment of silenced tumor cell lines: TET1 expression by semi-quantitative RT-PCR; details: 10 μmol/L Aza 3 days, alone or combined with HDAC inhibitor; nasopharyngeal, esophageal, colon, breast and renal tumor cell lines with methylated TET1
Text: Human tumor cell lines of multiple tissue types were used^50-55, including nasopharyngeal (NPC), esophageal squamous cell (ESCC), lung, gastric, colorectal (CRC), hepatocellular (HCC), breast, cervical, renal (RCC), bladder and prostate carcinomas, melanoma, as well as non-Hodgkin (NHL), Hodgkin (HL) and nasal natural killer (NK)/T-cell (NKTCL) lymphomas. Immortalized, non-transformed normal epithelial cell lines were used as “normal” controls. Cell lines were obtained from either American Type Culture Collection or collaborators. When needed, cell lines were treated with 10 μmol/L 5-aza-2′-deoxycytidine (Aza) (Sigma-aldrich, St Louis, Mo.) for 3 days, without or with further treatment with 100 nmol/trichostatin A (TSA) (Cayman Chemical Co., Ann Arbor, Mich.) for additional ˜16 h as previously^50,53. Normal adult and fetal tissue RNA and DNA samples were purchased commercially (Stratagene, La Jolla, Calif.; Millipore-Chemicon, Billerica, Mass.). […]
(§1) Semi-quantitative RT-PCR and quantitative real-time PCR were performed as described before^50,53, with GAPDH as a control for all the samples shown in previous publications^31,51,52. qRT-PCR was carried out according to the manufacturer's protocol (HT7900 system; applied Biosystems), with SYBR Green master mix (applied Biosystems) used.

TET1 promoter = assay: Demethylation treatment of silenced tumor cell lines: TET1 promoter methylation by MSP and BGS; details: for TET1 promoter demethylation (unmethylated promoter alleles) by MSP: 10 μmol/L Aza 3 days, without or with TSA ~16 h, silenced tumor cell lines
Text: Human tumor cell lines of multiple tissue types were used^50-55, including nasopharyngeal (NPC), esophageal squamous cell (ESCC), lung, gastric, colorectal (CRC), hepatocellular (HCC), breast, cervical, renal (RCC), bladder and prostate carcinomas, melanoma, as well as non-Hodgkin (NHL), Hodgkin (HL) and nasal natural killer (NK)/T-cell (NKTCL) lymphomas. Immortalized, non-transformed normal epithelial cell lines were used as “normal” controls. Cell lines were obtained from either American Type Culture Collection or collaborators. When needed, cell lines were treated with 10 μmol/L 5-aza-2′-deoxycytidine (Aza) (Sigma-aldrich, St Louis, Mo.) for 3 days, without or with further treatment with 100 nmol/trichostatin A (TSA) (Cayman Chemical Co., Ann Arbor, Mich.) for additional ˜16 h as previously^50,53. Normal adult and fetal tissue RNA and DNA samples were purchased commercially (Stratagene, La Jolla, Calif.; Millipore-Chemicon, Billerica, Mass.). DNA samples of primary carcinomas, nose swab from suspected NPC patients, as well as surgical margin normal tissues, have been described previously^31,51,52.
(§2) CpG island (CGI) analysis for TET1 promoter and exon 1 was performed using CpG island Searcher (http//ccnt.hsc.usc.edu/cpgislands2). Bisulfite modification of genomic DNA was carried out as described previously^56,57. For MSP analysis, approximately 50 ng of bisulfited DNA for each sample was amplified with methylation- or unmethylation-specific primer set, according to previously reported MSP protocol^58. Bisulfite-treated DNA was also amplified using a set of BGS primers, then cloned into pCR4-TOPO vector (Invitrogen, Carlsbad, Calif.), with 8-10 clones randomly picked and sequenced.

NPC tumor cells (HONE1) = assay: TUNEL assay; details: compared with vector or TET1-CD-mut controls
Description: Cells cultured on coverslips were fixed with 4% paraformaldehyde, and permeabilized with 0.1% triton X-100. TUNEL (Terminal deoxynucleotidyl transferase dUTP nick end labeling) staining was performed using the In Situ Cell Death Detection Kit (Roche, Mannheim, Germany).

[1] = system: HOXA9, HOXA5, PCDH7, TCF4, MEIS1, SLIT2 and ZNF382; assay: TSG expression by semi-quantitative RT-PCR and qRT-PCR in TET1-CD-expressing carcinoma cells
Description: as §1
(§3) Human TET1 catalytic domain (TET1-CD) cDNA and its catalytic domain mutant (TET1-CD-mut) clones (Addgene, Cambridge, Mass.) were used as templates to generate TET1 constructs with an N-terminal Flag tag, and subcloned into pcDNA3.1 vector (Invitrogen, Carlsbad, Calif.). Cells were cultured overnight in a 12-well plate and transfected with empty vector or TET1-CD, TET1-CD-mut-expressing plasmids using Lipofectamine 2000 (Invitrogen, Carlsbad, Calif.). Forty-eight hours later, transfectants were replated in triplicate and cultured for 10-15 days in complete medium containing G418. Surviving colonies were stained with crystal violet (0.5% w/v) after methanol fixation, with visible colonies (≥50 cells) counted.

[2] = system: NPC, ESCC, gastric, colon and breast tumor cells; assay: Colony formation assay of tumor cells; details: ectopic expression
Description: as §3

[3] = system: HOXA9, SLIT2 and ZNF382 promoters; assay: TSG promoter methylation by MSP in TET1-CD-expressing tumor cells
Description: as §2, §3

Molecule | TET1 expression after treatment (TET1) | TET1 promoter demethylation (unmethylated promoter alleles) by MSP (TET1 promoter) | TET1 promoter demethylation (unmethylated promoter alleles) by MSP (TET1 promoter; listed as Aza) | TET1 promoter CpG sites by BGS analysis (TET1 promoter; after Aza treatment, alone or combined with HDAC inhibitor) | numbers of apoptotic cells (NPC tumor cells (HONE1)) | TSG expression at mRNA levels (HOXA9, HOXA5, PCDH7, TCF4, MEIS1, SLIT2, ZNF382) [1] | tumor cell clonogenicity, % of control cells ([2]; NPC, ESCC, gastric, colon and breast tumor cells, vs control cells) | suppression of tumor cell clonogenicity / growth ([2]; colony formation assays of tumor cells of multiple tissue types) | methylated alleles of HOXA9, SLIT2 and ZNF382 promoters [3] | unmethylated promoter alleles of HOXA9, SLIT2 and ZNF382 [3]
Nc1ncn([C@H]2C[C@H](O)[C@@H](CO)O2)c(=O)n1 [5-aza-dC, 5-aza-2′-deoxycytidine] | restoration | increased | demethylated | dramatically demethylated | – | – | – | – | – | –
B1 | – | – | – | – | significantly increased; also recorded: induced | Mild upregulation; also recorded: upregulated | 40-50% | inhibited | decreased | increased
